B1: TPR t1 (parent)
chain: GACCAAUCUGCCCUCAGAGCUCGAGAACAUCUUCGGAUGCAGAGGAGGCAGGCUUCGGUGGCGCGAUAGCGCCAACGUCCUCAACCUCCAAUGCAUCCCACCACAUGAUGAUGCCUGAAGAGCCUUGGUUUUUUG

Variants of: B1
Experiment: polymerase ribozyme fitness, log enrichment relative to wild type (log ratio); higher = more active; in vitro selection for triplet polymerase activity
Procedure, shortened: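 Fitness is a logarithmic measure of how a genotype enriched relative to the wild type, with replicate averages weighted by inverse variance. The logarithm uses base 2, and enrichment came from Illumina sequencing of input and output libraries. Those libraries were PCR-built, transcribed mutants of each subunit of a heterodimeric triplet polymerase ribozyme, passed through one triplicate in vitro selection round that included frozen incubation at −7 °C, gel excision of extended constructs and streptavidin-bead capture. Genotypes were kept only if they had ≥10 input reads and ≥1 read per output.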

Question: With A74C A100C as the variant, how does the “polymerase ribozyme fitness (log ratio)” value read?
Answer: -1.06

Question: Which “polymerase ribozyme fitness (log ratio)” value does the source give for C72U U78A A90U C123U here?
Answer: -1.05

Question: With A74U C80G U112A as the variant, how does the “polymerase ribozyme fitness (log ratio)” value read?
Answer: -5.78

Question: With C73U C99A C115A U125G as the variant, how does the “polymerase ribozyme fitness (log ratio)” value read?
Answer: -6.08

Question: Which “polymerase ribozyme fitness (log ratio)” value does the source give for A74G C102U here?
Answer: -2.11

Question: For A74U A84U U129G, which “polymerase ribozyme fitness (log ratio)” value is on record?
Answer: -1.9

Question: With A74U A105C as the variant, how does the “polymerase ribozyme fitness (log ratio)” value read?
Answer: -3.15

Question: With A74C C104A C114A as the variant, how does the “polymerase ribozyme fitness (log ratio)” value read?
Answer: -4.14

Question: With C73A G127C as the variant, how does the “polymerase ribozyme fitness (log ratio)” value read?
Answer: -1.98

Question: For C73G U112A G117U, which “polymerase ribozyme fitness (log ratio)” value is on record?
Answer: -2.94

Question: Which “polymerase ribozyme fitness (log ratio)” value does the source give for C73A C80G here?
Answer: -5.69

Question: With C73U U92A G93A as the variant, how does the “polymerase ribozyme fitness (log ratio)” value read?
Answer: -4.03

Question: Which “polymerase ribozyme fitness (log ratio)” value does the source give for C72U C76U G122A here?
Answer: -1.21

Question: Which “polymerase ribozyme fitness (log ratio)” value does the source give for C72U C98U U131C here?
Answer: -1.05

Question: For C72U U96C G135U, which “polymerase ribozyme fitness (log ratio)” value is on record?
Answer: -1.42

Question: Which “polymerase ribozyme fitness (log ratio)” value does the source give for C73A U87C A105U here?
Answer: -1.35

Question: For C72U A84G, which “polymerase ribozyme fitness (log ratio)” value is on record?
Answer: -1.74

Question: With C72U A84C as the variant, how does the “polymerase ribozyme fitness (log ratio)” value read?
Answer: 0.0877

Question: Which “polymerase ribozyme fitness (log ratio)” value does the source give for C72U C88A here?
Answer: 0.024

Question: For C72U C88G, which “polymerase ribozyme fitness (log ratio)” value is on record?
Answer: -0.779

Question: Which “polymerase ribozyme fitness (log ratio)” value does the source give for C72U C88U here?
Answer: 0.0321

Question: Which “polymerase ribozyme fitness (log ratio)” value does the source give for C73G G77U U125G U133G here?
Answer: -1.69

Question: For C72U C88U C124A, which “polymerase ribozyme fitness (log ratio)” value is on record?
Answer: 0.938

Question: With A74G U87A G117C G120A A121U U129A as the variant, how does the “polymerase ribozyme fitness (log ratio)” value read?
Answer: -6.07

Question: For C73A G107A, which “polymerase ribozyme fitness (log ratio)” value is on record?
Answer: -5.21

Question: For C73G G93U, which “polymerase ribozyme fitness (log ratio)” value is on record?
Answer: -3.13

Question: For C73G G93A, which “polymerase ribozyme fitness (log ratio)” value is on record?
Answer: -1.13

Question: Which “polymerase ribozyme fitness (log ratio)” value does the source give for C73A C88A G117U here?
Answer: -4.07

Question: Which “polymerase ribozyme fitness (log ratio)” value does the source give for C72U G113C A118C here?
Answer: -3.51

Question: Which “polymerase ribozyme fitness (log ratio)” value does the source give for C73A G120C here?
Answer: 1.81

Question: With C72U C94G G110C as the variant, how does the “polymerase ribozyme fitness (log ratio)” value read?
Answer: -5.81

Question: Which “polymerase ribozyme fitness (log ratio)” value does the source give for A74U A118U here?
Answer: -0.576

Question: Which “polymerase ribozyme fitness (log ratio)” value does the source give for C72U G117A here?
Answer: -1.29

Question: Which “polymerase ribozyme fitness (log ratio)” value does the source give for C72U G117U here?
Answer: -2.27

Question: With C72U C73A A83U U109A as the variant, how does the “polymerase ribozyme fitness (log ratio)” value read?
Answer: -5.82

Question: Which “polymerase ribozyme fitness (log ratio)” value does the source give for C73G C80U here?
Answer: -1.77

Question: With C73U C101U G122A as the variant, how does the “polymerase ribozyme fitness (log ratio)” value read?
Answer: -0.395

Question: For C72U A74U, which “polymerase ribozyme fitness (log ratio)” value is on record?
Answer: -1.23

Question: For C72U C94G U132A, which “polymerase ribozyme fitness (log ratio)” value is on record?
Answer: -1.02

Question: Which “polymerase ribozyme fitness (log ratio)” value does the source give for C73U C102A U131A here?
Answer: -1.19

Question: For C73U C94U U129A, which “polymerase ribozyme fitness (log ratio)” value is on record?
Answer: -1.17

Question: Which “polymerase ribozyme fitness (log ratio)” value does the source give for C72U C79A here?
Answer: -3.07

Question: For C73G U112A, which “polymerase ribozyme fitness (log ratio)” value is on record?
Answer: -0.766

Question: Which “polymerase ribozyme fitness (log ratio)” value does the source give for C72U U96C here?
Answer: -1.2

Question: With A74G G120C as the variant, how does the “polymerase ribozyme fitness (log ratio)” value read?
Answer: 0.921

Question: With C73U A108U as the variant, how does the “polymerase ribozyme fitness (log ratio)” value read?
Answer: -5.75

Question: Which “polymerase ribozyme fitness (log ratio)” value does the source give for C73G G120U here?
Answer: -0.78

Question: With A74C U130A U131A U133A as the variant, how does the “polymerase ribozyme fitness (log ratio)” value read?
Answer: -2.13

Question: For C72U U96A A118G, which “polymerase ribozyme fitness (log ratio)” value is on record?
Answer: -1.7

Question: With A74U C82G C123U U131A U134C as the variant, how does the “polymerase ribozyme fitness (log ratio)” value read?
Answer: 0.478

Question: Which “polymerase ribozyme fitness (log ratio)” value does the source give for C72U G122A here?
Answer: -0.576

Question: For C73A U109C C114G C115A G122U, which “polymerase ribozyme fitness (log ratio)” value is on record?
Answer: -7.04

Question: For C73U A75U U87A U92A, which “polymerase ribozyme fitness (log ratio)” value is on record?
Answer: -4.13

Question: With C73A C86U U87A G117A U132A as the variant, how does the “polymerase ribozyme fitness (log ratio)” value read?
Answer: -3.67

Question: Which “polymerase ribozyme fitness (log ratio)” value does the source give for C73A C82G G117U U130C here?
Answer: -0.953

Question: For C73A C79G U112A, which “polymerase ribozyme fitness (log ratio)” value is on record?
Answer: -0.66

Question: Which “polymerase ribozyme fitness (log ratio)” value does the source give for C72U C101A C115A C123A here?
Answer: -3.06

Question: With C73U C86U as the variant, how does the “polymerase ribozyme fitness (log ratio)” value read?
Answer: 0.0966

Question: Which “polymerase ribozyme fitness (log ratio)” value does the source give for C73U C86G here?
Answer: -2.49

Question: For A74C C94U, which “polymerase ribozyme fitness (log ratio)” value is on record?
Answer: -0.6

Question: Which “polymerase ribozyme fitness (log ratio)” value does the source give for C73A U131G here?
Answer: -0.242

Question: With C73G C82A A90U C123G as the variant, how does the “polymerase ribozyme fitness (log ratio)” value read?
Answer: -0.559

Question: Which “polymerase ribozyme fitness (log ratio)” value does the source give for C73U U96G here?
Answer: -0.308

Question: For C73U C114U, which “polymerase ribozyme fitness (log ratio)” value is on record?
Answer: -1.31

Question: Which “polymerase ribozyme fitness (log ratio)” value does the source give for C73U C114A here?
Answer: -1.19

Question: Which “polymerase ribozyme fitness (log ratio)” value does the source give for C73U C89G A100U here?
Answer: -2.03

Question: With C73U U96A U116G U130A as the variant, how does the “polymerase ribozyme fitness (log ratio)” value read?
Answer: -3

Question: Which “polymerase ribozyme fitness (log ratio)” value does the source give for C72U C76G here?
Answer: -0.525

Question: With C72U C76A as the variant, how does the “polymerase ribozyme fitness (log ratio)” value read?
Answer: -0.968

Question: With C72U U106A as the variant, how does the “polymerase ribozyme fitness (log ratio)” value read?
Answer: 0.0802

Question: With A74C C101G U109A as the variant, how does the “polymerase ribozyme fitness (log ratio)” value read?
Answer: -6.47

Question: Which “polymerase ribozyme fitness (log ratio)” value does the source give for C73A G93A here?
Answer: -1.04

Question: Which “polymerase ribozyme fitness (log ratio)” value does the source give for C73G A95C here?
Answer: -2.83

Question: With A74C C82A as the variant, how does the “polymerase ribozyme fitness (log ratio)” value read?
Answer: -0.0256

Question: For A74G C102U A119U, which “polymerase ribozyme fitness (log ratio)” value is on record?
Answer: -0.954

Question: With C73A U130C as the variant, how does the “polymerase ribozyme fitness (log ratio)” value read?
Answer: -0.0885

Question: With C73A C85A G117A A119G U133C G135C as the variant, how does the “polymerase ribozyme fitness (log ratio)” value read?
Answer: -0.124

Question: With C73G A74U C89U as the variant, how does the “polymerase ribozyme fitness (log ratio)” value read?
Answer: -2.48

Question: For C73U A95C U130A, which “polymerase ribozyme fitness (log ratio)” value is on record?
Answer: -1.26

Question: For C72U U116C, which “polymerase ribozyme fitness (log ratio)” value is on record?
Answer: -0.368

Question: Which “polymerase ribozyme fitness (log ratio)” value does the source give for C72U U116G here?
Answer: -2.57

Question: With C73U U87A A91U U112A U116G as the variant, how does the “polymerase ribozyme fitness (log ratio)” value read?
Answer: -4.55

Question: Which “polymerase ribozyme fitness (log ratio)” value does the source give for C73A C99U here?
Answer: -2.77

— the RNAGym collection of RNA variant scans (doi:10.1073/pnas.2313332121)
